How the values were obtained:
[1] = molecular target: human histone (H3-H4)2 tetramer (human) (UniProt P68431); assay: MST
[2] = molecular target: fluorescently labeled human H2a(G129C)-H2b dimer (human) (UniProt P04908); assay: MST

αSyn(1-103) (from UniProt P37840 1-103) (domain or fragment)
Kd [1]: 107 nM

αSyn(1-131) (from UniProt P37840 1-131) (domain or fragment)
Kd [2]: 32400 nM

αSyn(121-140) peptide (from UniProt P37840 121-140)
KD of one of two binding sites [2]: 500 nM | KD of the other of two binding sites [2]: 2600 nM

Source: article PMC12062221
